Data published in patent US20250313631A1 (HUMMINGBIRD BIOSCIENCE PTE, published 2025).
Positions count from the first letter of the chain named. Where two headings read alike, the source gives them in different places.

T1: mouse FcRn (His-tagged, Sino Biological CT009-H08H) (mouse, UniProt Q61559 22-297)
T1 construct: also called mFcRn
T1 sequence (looked up): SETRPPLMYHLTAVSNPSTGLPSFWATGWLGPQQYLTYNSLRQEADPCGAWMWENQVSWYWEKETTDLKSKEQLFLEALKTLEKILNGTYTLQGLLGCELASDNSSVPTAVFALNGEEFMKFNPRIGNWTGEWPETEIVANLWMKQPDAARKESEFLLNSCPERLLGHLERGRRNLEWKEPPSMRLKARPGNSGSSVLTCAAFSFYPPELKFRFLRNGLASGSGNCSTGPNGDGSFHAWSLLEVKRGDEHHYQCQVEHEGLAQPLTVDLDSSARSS

T2: mouse FcγRIII (His-tagged, Sino Biological 50326-M08H) (mouse, UniProt P08508 31-215)
T2 construct: also called mFcγRIII
T2 sequence (looked up): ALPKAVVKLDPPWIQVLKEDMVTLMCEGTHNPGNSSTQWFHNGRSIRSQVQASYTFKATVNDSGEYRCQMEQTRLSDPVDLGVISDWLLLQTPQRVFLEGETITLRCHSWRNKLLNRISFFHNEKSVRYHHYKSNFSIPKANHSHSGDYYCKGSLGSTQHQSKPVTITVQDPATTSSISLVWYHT

T3: mouse FcγRIIb (His-tagged, Sino Biological 50030-M08H) (mouse, UniProt P08101 30-217)
T3 construct: also called mFcγRIIb
T3 sequence (looked up): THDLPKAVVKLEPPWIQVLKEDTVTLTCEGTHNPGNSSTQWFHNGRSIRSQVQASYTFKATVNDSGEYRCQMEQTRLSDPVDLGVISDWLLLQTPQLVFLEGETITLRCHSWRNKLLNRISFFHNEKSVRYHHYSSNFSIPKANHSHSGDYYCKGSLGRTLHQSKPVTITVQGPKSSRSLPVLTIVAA

T4: mouse FcγRIV (His-tagged, Sino Biological 50036-M08H) (mouse, UniProt A0A0B4J1G0 21-203)
T4 construct: also called mFcγRIV; not shown: the histidine tag (and any linker) of the Sino Biological construct 50036-M08H
T4 sequence: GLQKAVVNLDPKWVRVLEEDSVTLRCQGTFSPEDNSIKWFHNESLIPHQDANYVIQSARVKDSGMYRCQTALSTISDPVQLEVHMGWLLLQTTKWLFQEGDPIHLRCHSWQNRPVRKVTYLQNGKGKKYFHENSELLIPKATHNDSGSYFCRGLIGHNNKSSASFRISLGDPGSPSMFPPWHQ

B1: 4M2-C12 mIgG2a LALA PG (antibody)
heavy: EVKLVESGPGLVKPSQSLSLTCTVTGYSITSDYAWNWIRQFPGNKLEWMGYITYSGNISYNPSLRSRISITRDTSKNQFFLQLNSVTPEDTATYSCARSLYYPWYFDVWGAGTTVTVSSAKTTAPSVYPLAPVCGDTTGSSVTLGCLVKGYFPEPVTLTWNSGSLSSGVHTFPAVLQSDLYTLSSSVTVTSSTWPSQSITCNVAHPASSTKVDKKIEPRGPTIKPCPPCKCPAPNAAGGPSVFIFPPKIKDVLMISLSPIVTCVVVDVSEDDPDVQISWFVNNVEVHTAQTQTHREDYNSTLRVVSALPIQHQDWMSGKEFKCKVNNKDLGAPIERTISKPKGSVRAPQVYVLPPPEEEMTKKQVTLTCMVTDFMPEDIYVEWTNNGKTELNYKNTEPVLDSDGSYFMYSKLRVEKKNWVERNSYSCSVVHEGLHNHHTTKSFSRTPGK
light: DIVITQTPAILSTSPGEKVTMTCRASSSVGYIHWYQQKPGSSPKPWIYATSNLASGVPARFSGSGSGTSNSLTITRVEAEDAATYYCQQWSSYPPITFGGGTKLEVKRADAAPTVSIFPPSSEQLTSGGASVVCFLNNFYPKDINVKWKIDGSERQNGVLNSWTDQDSKDSTYSMSSTLTLTKDEYERHNSYTCEATHKTSTSPIVKSFNRNEC
B2: 4M2-C12 mIgG2a NQ (antibody)
heavy chain: B1 heavy with A236L, A237L, N299Q, G331P
light chain: B1 light

Columns and labels:
[1] = target: T1, mouse FcRn (His-tagged, Sino Biological …); experiment: BLI summary table, mFcRn, pH 5.8
[2] = target: T2, mouse FcγRIII (His-tagged, Sino …); experiment: BLI (Octet QK384): His-tagged receptor on anti-Penta-HIS biosensor, antibody as analyte, PBS pH 7.2
[3] = target: T1, mouse FcRn (His-tagged, Sino Biological …); experiment: BLI summary table, mFcRn, pH 5.8; remark: listed apart in the source
[4] = target: T3, mouse FcγRIIb (His-tagged, Sino …); experiment: BLI (Octet QK384): His-tagged receptor on anti-Penta-HIS biosensor, antibody as analyte, PBS pH 7.2
[5] = target: T1, mouse FcRn (His-tagged, Sino Biological …); experiment: BLI (Octet QK384): His-tagged mFcRn on anti-Penta-HIS biosensor, antibody as analyte, PBS pH 5.8, global 1:1 fit
[6] = target: T4, mouse FcγRIV (His-tagged, Sino …); experiment: BLI (Octet QK384): His-tagged receptor on anti-Penta-HIS biosensor, antibody as analyte, PBS pH 7.2
[7] = target: T1, mouse FcRn (His-tagged, Sino Biological …); experiment: BLI summary table, mFcRn, pH 5.8; remark: listed apart in the source
[8] = target: T4, mouse FcγRIV (His-tagged, Sino …); experiment: BLI (Octet QK384): His-tagged receptor on anti-Penta-HIS biosensor, antibody as analyte, PBS pH 7.2; kon = ND and KD = ND are printed beside it
[9] = target: T1, mouse FcRn (His-tagged, Sino Biological …); experiment: BLI (Octet QK384): His-tagged mFcRn on anti-Penta-HIS biosensor, antibody as analyte, PBS pH 5.8, global 1:1 fit; remark: listed apart in the source
[10] = target: T4, mouse FcγRIV (His-tagged, Sino …); experiment: BLI summary table, mFcgRIV, pH 7.2
[11] = target: T3, mouse FcγRIIb (His-tagged, Sino …); experiment: BLI (Octet QK384): His-tagged receptor on anti-Penta-HIS biosensor, antibody as analyte, PBS pH 7.2; remark: listed apart in the source

Binder | koff [1] [s⁻¹] | binding result [2] | kon [3] [M⁻¹ s⁻¹] | binding result [4] | Kd [5] [nM] | koff [5] [s⁻¹] | kon [5] [M⁻¹ s⁻¹] | binding result [6] | Kd [7] [nM] | koff [8] [s⁻¹] | Kd [9] [nM] | koff [9] [s⁻¹] | kon [9] [M⁻¹ s⁻¹] | koff [10] [s⁻¹] | binding result [11]
B1 | 0.0097 | no binding | 270000 | no binding | 35.8 | 0.0097 | 270000 | no binding | 35.8 | – | – | – | – | – | –
B2 | 0.0075 | – | 180000 | – | – | – | – | – | 42.5 | 0.348 | 42.5 | 0.0075 | 180000 | 0.348 | no binding
